One block for each molecule: values may come before it.
What was measured:
[1] = tested on: CBC–NELF–E complex immobilised on m^7GTP-sepharose; assay: Displacement pull down on m^7GTP-sepharose, CBC–NELF–E; format: binding, human; settings: increasing amounts added, 1 h at 4 °C, flow through and elution by SDS-PAGE
Method: (§1) Fig. 4 Incompatibility of ARS2-PHAX and NELF-E binding to CBC. a, b Competition on m^7GTP-sepharose. a In separate experiments, different amounts of ARS2^147–871 were added to preformed CBC–NELF–E complex immobilised on m^7GTP-sepharose. […] The fluorophore FAM is represented with a star. Note that different constructs of NELF-E and ARS2 were used in c, d, and e compared to f, g, and h and are therefore represented by slightly different shapes. Error bars show the SD of three experiments
CBC-NELF-E^1–380 or CBC-PHAX^1–394 were immobilised on m^7GTP-sepharose and incubated for 1 h at 4 °C with different amounts of ARS2^147–871 or NELF-E^1–380 in 20 mM HEPES, pH 7.8, 120 mM NaCl, 2 mM tris(2-carboxyethyl)phosphine, respectively. The flow through, as well as the elution from the beads after extensive washing, was analysed by SDS-PAGE followed by Coomassie staining.

CBC [2] = target: T1, CBC (Homo sapiens, UniProt P52298); assay: Size exclusion chromatography (gel filtration) co-elution with CBC, with m^7GTP; format: binding; settings: gel filtration with 500 µM m^7GTP, fractions analysed by SDS-PAGE
T1 sequence (P52298 1-156): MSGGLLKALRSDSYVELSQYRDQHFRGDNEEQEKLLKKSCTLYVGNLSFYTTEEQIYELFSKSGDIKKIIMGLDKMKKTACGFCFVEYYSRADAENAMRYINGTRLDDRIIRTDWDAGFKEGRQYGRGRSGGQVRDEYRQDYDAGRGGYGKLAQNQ
T1 sequence (Q09161 20-790 partner): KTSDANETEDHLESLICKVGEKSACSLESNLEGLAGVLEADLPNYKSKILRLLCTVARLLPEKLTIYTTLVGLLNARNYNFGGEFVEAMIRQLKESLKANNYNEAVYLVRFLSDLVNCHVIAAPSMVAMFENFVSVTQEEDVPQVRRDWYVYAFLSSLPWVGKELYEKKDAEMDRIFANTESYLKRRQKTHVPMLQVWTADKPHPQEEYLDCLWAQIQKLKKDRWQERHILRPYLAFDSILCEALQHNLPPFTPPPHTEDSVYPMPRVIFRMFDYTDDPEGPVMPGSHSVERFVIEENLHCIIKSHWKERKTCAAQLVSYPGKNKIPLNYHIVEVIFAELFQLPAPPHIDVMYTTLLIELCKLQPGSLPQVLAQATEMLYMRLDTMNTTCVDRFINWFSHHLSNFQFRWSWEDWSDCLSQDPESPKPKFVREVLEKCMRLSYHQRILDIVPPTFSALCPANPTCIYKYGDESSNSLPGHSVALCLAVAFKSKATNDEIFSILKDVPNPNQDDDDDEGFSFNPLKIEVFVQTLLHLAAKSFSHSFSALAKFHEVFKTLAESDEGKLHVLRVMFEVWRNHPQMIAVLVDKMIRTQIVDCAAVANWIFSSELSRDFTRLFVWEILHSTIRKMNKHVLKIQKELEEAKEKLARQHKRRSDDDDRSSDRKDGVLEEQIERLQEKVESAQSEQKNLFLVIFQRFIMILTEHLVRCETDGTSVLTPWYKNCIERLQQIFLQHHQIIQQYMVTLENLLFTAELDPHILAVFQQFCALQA
Method: (§2) Fig. 1 The interaction of CBC with ARS2 is enhanced in the presence of m^7GTP. a Schematic diagram of the domain structure of ARS2 based on ref. [26]. b Gel filtration chromatogram and Coomassie-stained SDS-PAGE of CBC-ARS2 in the presence and absence of m^7GTP. Purified recombinant CBC and ARS2^147–871 were mixed with (orange) or without (blue) 500 µM m^7GTP and subjected to gel filtration. Their elution profiles were overlaid (left) and single fractions analysed by SDS-PAGE (middle and right). Purified recombinant CBC and C-terminally truncated ARS2^147–845 were mixed with 500 µM m^7GTP and analysed in a similar way (bottom left). c ITC data and curve fit to derive the affinity of different ARS2 constructs for CBC. CBC or m^7GTP-CBC in the sample cell was titrated by ARS2. […] K D values and standard deviation represent the average from at least two independent experiments. d Sequence alignment of the C-terminus of ARS2. Conserved residues are highlighted in red. Figure made with ESPript[54]
Fig. 2 The interaction of CBC with NELF-E is enhanced in the presence of m^7GTP. a Schematic diagram of the domain structure of NELF-E. b Gel filtration chromatogram and Coomassie-stained SDS-PAGE of CBC-NELF-E in the presence and absence of m^7GTP. Purified recombinant CBC and NELF-E were mixed with (orange) or without (green) 500 µM m^7GTP and subjected to gel filtration. Their elution profiles were overlaid (left) and single fractions analysed by SDS-PAGE (middle and right). Purified recombinant CBC and NELF-E^244–360 were mixed together with 500 µM m^7GTP and similarly analysed (bottom left). c ITC data and curve fit to derive the affinity of different NELF-E constructs for CBC. CBC or m^7GTP-CBC in the sample cell was titrated by NELF-E^244–380 or NELF-E^360–380. The data were presented as described in the caption to Fig. 1c. d Sequence alignment of the C-terminus of NELF-E. Conserved residues are highlighted in red. Figure made with ESPript[54]

CBC [3] = target: T1, CBC; assay: Size exclusion chromatography (gel filtration) co-elution with CBC, without m^7GTP; format: binding; settings: fractions analysed by SDS-PAGE, absence of m^7GTP
Method: as §2
Fig. 2 The interaction of CBC with NELF-E is enhanced in the presence of m^7GTP. a Schematic diagram of the domain structure of NELF-E. b Gel filtration chromatogram and Coomassie-stained SDS-PAGE of CBC-NELF-E in the presence and absence of m^7GTP. […] Their elution profiles were overlaid (left) and single fractions analysed by SDS-PAGE (middle and right). […]

CBC [4] = target: T1, CBC; assay: ITC, binding to CBC without cap analogue; settings: ITC (MicroCal ITC200), 25 °C, 20 mM HEPES, 120 mM NaCl, 2 mM TCEP, pH 7.8, single-site fit; no cap analogue pre-bound; mean ± SD of at least two independent experiments; SD
Excerpt: hARS2 isoform-4 (871 residues, UniProt:Q9BXP5-4, also known as isoform-e, NP_001122326) constructs (residues 147–871, 147–845, 763–871, 763–845, 827–871) hNELF-E (NM_002904.5) (244–380, 244–360) and hPHAX (NM_032177.3) (1–394, 103–294, 103–308, 103–327) were cloned into pETM11 (EMBL). Full-length hNELF-E (1–380) was cloned into pFASTBac and CBP20 into pETM30. Primers used are given in Supplementary Table 2. All constructs were expressed in E. coli Rosetta 2 (Novagen), except full-length NELF-E and CBP80ΔNLS (CBP80 with residues 1–19 deleted[2]), which were expressed in High Five insect cells (Life Technology). Cells were harvested and lysed by sonication in lysis buffer containing 50 mM HEPES, pH 7.8, 300 mM NaCl, 10% (v/v) glycerol, 5 mM β-mercaptoethanol. Lysates were clarified by centrifugation and applied on an equilibrated Ni-sepharose column (GE Healthcare), washed with 20 mM imidazole in lysis buffer, and eluted with 300 mM imidazole in lysis buffer. While dialysing into 20 mM HEPES, pH 7.8, 120 mM NaCl, 10% (v/v) glycerol, 5 mM β-mercaptoethanol, the N-terminal 6-histidine-tag was cleaved with His-tagged Tobacco Etch Virus (TEV) protease overnight in a ratio 1:100 mg TEV per mg protein. The cleaved protein was further purified first on Ni-sepharose to remove TEV and then using an anion exchange column (HiTrap Q, GE Healthcare) followed if necessary by a Heparin column (GE Healthcare). In both cases a NaCl gradient from 50 to 800 mM in 20 mM HEPES 7.8, 0.5 mM tris(2-carboxyethyl)phosphine was used. To reconstitute the CBC heterodimer, cleared His-tagged CBP20 lysate was first immobilised on a Ni-sepharose column. After washing the column with lysis buffer, the cleared CBP80 lysate was applied to the column and further purification steps performed as described above. To remove the access of CBP20 the flow through of the Ni-column after TEV cleavage was loaded on an anion exchange column (HiTrap Q, GE Healthcare) and CBC eluted by a NaCl gradient as described above. In the text we refer to CBP80ΔNLS and CBP80ΔNLS-CBP20 as CBP80 and CBC, respectively. ARS2^845–871, NELF-E^354–380, and NELF-E^360–380 peptides, with or without FAM label at the N-terminus, were purchased from GenScript.

m^7GTP-CBC = target: T2, m^7GTP-CBC (Homo sapiens, UniProt P52298+Q09161); assay: Fluorescence polarisation with FAM-labelled C-terminal peptides; format: binding; settings: competition, 40 nM FAM peptide, 25 µM m^7GTP, 25 °C, n = 3
T2 construct: 6-histidine tag (pETM30 vector) (N, cleaved yes); made in house; host or cells: CBP20 in E. coli Rosetta 2; CBP80ΔNLS in High Five insect cells; heterodimer reconstituted on Ni-sepharose
T2 sequence (Q09161 20-790): T1 sequence (Q09161 20-790 partner)
T2 sequence (P52298 1-156): T1 sequence (P52298 1-156)
Method: as §1
Fluorescence anisotropy binding assays were performed with N-terminal FAM-labelled ARS2^845–871 and […] peptides. 40 nM peptides were titrated with increasing concentrations of proteins in 20 mM HEPES, pH 7.8, 120 mM NaCl, 2 mM tris(2-carboxyethyl)phosphine. For the competition assay CBC–ARS2 and CBC–NELF–E complexes were preformed in the presence of 25 µM m^7GTP using 40 nM ARS2^827–871(FAM) peptide together with 60 nM CBC and 40 nM NELF-E^354–380(FAM) peptide with 1 µM CBC. […] To observe a change in polarisation at reasonable protein concentrations, CBC and NELF-E^244–380 concentrations that saturate half of the FAM-labelled peptides were used to preform the individual complexes. Fluorescence polarisation was measured at 25 °C with a microplate reader (CLARIOstar BMG LABTECH) using an excitation wavelength of 495 nm and emission wavelength of 515 nm. For analysis the polarisation value for the peptide alone was subtracted from the measurements.

- Displacement of NELF-E from immobilised m^7GTP–CBC–NELF–E complex [1]: could displace NELF-E
B1: ARS2^147–871: human ARS2 lacking the putatively unstructured N-terminal region (protein, UniProt Q9BXP5 147-871, looked up, fragment)
chain: PVMKTFKEFLLSLDDSVDETEAVKRYNDYKLDFRRQQMQDFFLAHKDEEWFRSKYHPDEVGKRRQEARGALQNRLRVFLSLMETGWFDNLLLDIDKADAIVKMLDAAVIKMEGGTENDLRILEQEEEEEQAGKPGEPSKKEEGRAGAGLGDGERKTNDKDEKKEDGKQAENDSSNDDKTKKSEGDGDKEEKKEDSEKEAKKSSKKRNRKHSGDDSFDEGSVSESESESESGQAEEEKEEAEEALKEKEKPKEEEWEKPKDAAGLECKPRPLHKTCSLFMRNIAPNISRAEIISLCKRYPGFMRVALSEPQPERRFFRRGWVTFDRSVNIKEICWNLQNIRLRECELSPGVNRDLTRRVRNINGITQHKQIVRNDIKLAAKLIHTLDDRTQLWASEPGTPPLPTSLPSQNPILKNITDYLIEEVSAEEEELLGSSGGAPPEEPPKEGNPAEINVERDEKLIKVLDKLLLYLRIVHSLDYYNTCEYPNEDEMPNRCGIIHVRGPMPPNRISHGEVLEWQKTFEEKLTPLLSVRESLSEEEAQKMGRKDPEQEVEKFVTSNTQELGKDKWLCPLSGKKFKGPEFVRKHIFNKHAEKIEEVKKEVAFFNNFLTDAKRPALPEIKPAQPPGPAQILPPGLTPGLPYPHQTPQGLMPYGQPRPPILGYGAGAVRPAVPTGGPPYPHAPYGAGRGNYDAFRGQGGYPGKPRNRMVRGDPRAIVEYRDLDAPD
- Interaction with CBC by SEC in the presence of m^7GTP (CBC [2]): only co-eluted in the presence of the cap analogue m^7GTP

B2: PHAX 103–264: human PHAX residues 103–264 (protein, UniProt Q9H814 103-264, looked up, fragment)
chain: SQKPPVAGGKKINNIWGAVLQEQNQDAVATELGILGMEGTIDRSRQSETYNYLLAKKLRKESQEHTKDLDKELDEYMHGGKKMGSKEEENGQGHLKRKRPVKDRLGNRPEMNYKGRYEITAEDSQEKVADEISFRLQEPKKDLIARVVRIIGNKKAIELLME
- Interaction with CBC by SEC (CBC [3]): No interaction via SEC

B3: PHAX 120–308: human PHAX residues 120–308 (protein, UniProt Q9H814 120-308, looked up, fragment)
chain: AVLQEQNQDAVATELGILGMEGTIDRSRQSETYNYLLAKKLRKESQEHTKDLDKELDEYMHGGKKMGSKEEENGQGHLKRKRPVKDRLGNRPEMNYKGRYEITAEDSQEKVADEISFRLQEPKKDLIARVVRIIGNKKAIELLMETAEVEQNGGLFIMNGSRRRTPGGVFLNLLKNTPSISEEQIKDIF
- Interaction with CBC by SEC (CBC [3]): No interaction via SEC

- Kd (CBC [4]): 350 ± 71 nM
- Change of polarisation on titration to m^7GTP-CBC-ARS2^845–871(FAM) (m^7GTP-CBC; 60 nM CBC): did not affect the polarisation
- Change of polarisation on titration to m^7GTP-CBC-NELF-E^354–380(FAM) (m^7GTP-CBC; 1 µM CBC): did not change the polarisation
B4: PHAX 103–327: human PHAX residues 103–327, includes the full PHAX RBD (protein, UniProt Q9H814 103-327, looked up, fragment)
chain: SQKPPVAGGKKINNIWGAVLQEQNQDAVATELGILGMEGTIDRSRQSETYNYLLAKKLRKESQEHTKDLDKELDEYMHGGKKMGSKEEENGQGHLKRKRPVKDRLGNRPEMNYKGRYEITAEDSQEKVADEISFRLQEPKKDLIARVVRIIGNKKAIELLMETAEVEQNGGLFIMNGSRRRTPGGVFLNLLKNTPSISEEQIKDIFYIENQKEYENKKAARKRRT
